Results on 4 proteins are retold here after PMC10836395, “Investigation of how gate residues in the main channel affect the catalytic activity of Scytalidium thermophilum catalase” (Acta Crystallographica. Section D, Structural Biology, 2024).

In general, Km refers to the substrate concentration at which the rate is half of its maximum. One may read the kcat as the number of substrate molecules converted per active site and unit of time at saturation. Usually kcat/Km stands for the turnover number divided by the Michaelis constant.

Substrate in data set [1]: Oc1ccc(O)cc1
Nature of the data set: Spectrophotometric phenol oxidase assay without H2O2 at pH 7.0 and 60 °C, initial rates fitted to the Michaelis-Menten equation. Type of data set: biochemical. As for the experimental part: (§1) All inhibition assays were performed in triplicate.

Substrate in data set [2]: CC(C)(C)c1ccc(O)c(O)c1
The data set is described as above. Type of data set: biochemical. As for the experimental part: as §1

Substrate in data set [3]: Cc1ccc(O)c(O)c1
The description is as above. Type of data set: biochemical. As for the experimental part: as §1

Substrate in data set [4]: Oc1ccccc1O
Nature of the data set: Spectrophotometric catechol oxidation assay at 420 nm, pH 7.0 and 60 °C; values not normalized to heme content. Type of data set: biochemical. As for the experimental part:
as §1
Tabl e S1 Comparison of gate residues at the entrance of the main channel among large subunit […]
PDB ID e Organism Gate residues
Tabl e S2 K i neti c const ant s
**Catalase activity **Phenol oxidase activity
*KM-app kcat kcat/*KM-app KM kcat kcat/KM
(mM) (s-1) (s-1 M-1) (mM) (s-1) (s-1 M-1) Rz Heme
RZ = A407/A280. T he values were normalized to heme content in each CAT PO variant. T he values in parentheses are for unnor malized val ues a nd shaded in gre y for ease of vie wi ng. *KM-app is the H2O2 concentratio n at Vmax/2 […]
Michaelis–Menten kinetics (Switala & Loewen, 2002).
**One unit of catalase is defined as the amo unt that catalyses the degradation o f 1 µmol H2O2 in 1 min. One unit of phenol oxidase corresponds to the enzyme catalysing the formation of 1 nmol of product per minute.

Substrate in data set [5]: CCn1c(=NN=c2sc3cc(S(=O)(=O)O)ccc3n2CC)sc2cc(S(=O)(=O)O)ccc21
Nature of the data set: purified protein, by the assay type. Particulars: 60.0 °C.

Substrate in data set [6]: Oc1ccccc1O
The data set can be described thus: Phenol oxidase activity (H2O2-independent) measured spectrophotometrically by product formation at pH 7.0, 60 C, Michaelis-Menten fit. Type of data set: biochemical. As for the experimental part: as §1

B1: E484I (Mycothermus thermophilus; E503I) (protein)
chain: TCPFADPAALYSRQDTTSGQSPLAAYEVDDSTGYLTSDVGGPIQDQTSLKAGIRGPTLLEDFMFRQKIQHFDHERVPERAVHARGAGAHGTFTSYADWSNITAASFLNATGKQTPVFVRFSTVAGSRGSADTARDVHGFATRFYTDEGNFDIVGNNIPVFFIQDAIQFPDLIHSVKPRPDNEIPQAATAHDSAWDFFSQQPSTMHTLFWAMSGHGIPRSYRHMDGFGVHTFRFVKDDGSSKLIKWHFKSRQGKASLVWEEAQVLSGKNADFHRQDLWDAIESGNGPEWDVCVQIVDESQAQAFGFDLLDPTKIIPEEYAPLTKLGLLKLDRNPTNYFAETEQVMFQPGHIVRGIDFTEDPLLQGRLFSYLDTQLNRNGGPNFEQLPINMPRVPIHNNNRDGAGQMFIHRNKYPYTPNTLNSGYPRQANQNAGRGFFTAPGRTASGALVREVSPTFNDHWSQPRLFFNSLTPVEQQFLVNAMRFIISLVKSEEVKKNVLTQLNRVSHDVAVRVAAAIGLGAPDADDTYYHNNKTAGVSIVGSGPLPTIKTLRVGILATTSESSALDQAAQLRTRLEKDGLVVTVVAETLREGVDQTYSTADATGFDGVVVVDGAAALFASTASSPLFPTGRPLQIFVDAYRWGKPVGVCGGKSSEVLDAADVPEDGDGVYSEESVDMFVEEFEKGLATFRFTDRFALDS
notes: recombinant, pET-28-TEV-CATPO; contains heme b; Rz 0.5
In the case of B1, the Michaelis constant (Km) in data set [1] is 45 ± 1.3 mM; in data set [2] it was 37 ± 0.4 mM; in data set [3], 35 ± 0.7 mM; in data set [4], 40 mM; in data set [5], 50 ± 0.5 mM; in data set [6] it was 30 ± 1.0 mM. Further, in data set [6], the kcat is 26500 ± 1320 s⁻¹. Further, the kcat/Km in data set [6] is 880000 ± 7200 M⁻¹ s⁻¹.

B2: T188D (Mycothermus thermophilus; T207D) (protein)
chain: TCPFADPAALYSRQDTTSGQSPLAAYEVDDSTGYLTSDVGGPIQDQTSLKAGIRGPTLLEDFMFRQKIQHFDHERVPERAVHARGAGAHGTFTSYADWSNITAASFLNATGKQTPVFVRFSTVAGSRGSADTARDVHGFATRFYTDEGNFDIVGNNIPVFFIQDAIQFPDLIHSVKPRPDNEIPQAADAHDSAWDFFSQQPSTMHTLFWAMSGHGIPRSYRHMDGFGVHTFRFVKDDGSSKLIKWHFKSRQGKASLVWEEAQVLSGKNADFHRQDLWDAIESGNGPEWDVCVQIVDESQAQAFGFDLLDPTKIIPEEYAPLTKLGLLKLDRNPTNYFAETEQVMFQPGHIVRGIDFTEDPLLQGRLFSYLDTQLNRNGGPNFEQLPINMPRVPIHNNNRDGAGQMFIHRNKYPYTPNTLNSGYPRQANQNAGRGFFTAPGRTASGALVREVSPTFNDHWSQPRLFFNSLTPVEQQFLVNAMRFEISLVKSEEVKKNVLTQLNRVSHDVAVRVAAAIGLGAPDADDTYYHNNKTAGVSIVGSGPLPTIKTLRVGILATTSESSALDQAAQLRTRLEKDGLVVTVVAETLREGVDQTYSTADATGFDGVVVVDGAAALFASTASSPLFPTGRPLQIFVDAYRWGKPVGVCGGKSSEVLDAADVPEDGDGVYSEESVDMFVEEFEKGLATFRFTDRFALDS
notes: as for B1
For the protein B2, the Km in data set [1] turned out to be 46 ± 1.0 mM; in data set [2], 38 ± 0.5 mM; in data set [3], 30 ± 0.1 mM; in data set [4] it was 33 mM; in data set [5] it was 55 ± 1.0 mM; in data set [6], 25 ± 1.5 mM. Besides, in data set [6], the kcat came to 22300 ± 669 s⁻¹. In data set [6], the kcat/Km is 890000 ± 7000 M⁻¹ s⁻¹.

B3: T188I (Mycothermus thermophilus; T207I) (protein)
chain: TCPFADPAALYSRQDTTSGQSPLAAYEVDDSTGYLTSDVGGPIQDQTSLKAGIRGPTLLEDFMFRQKIQHFDHERVPERAVHARGAGAHGTFTSYADWSNITAASFLNATGKQTPVFVRFSTVAGSRGSADTARDVHGFATRFYTDEGNFDIVGNNIPVFFIQDAIQFPDLIHSVKPRPDNEIPQAAIAHDSAWDFFSQQPSTMHTLFWAMSGHGIPRSYRHMDGFGVHTFRFVKDDGSSKLIKWHFKSRQGKASLVWEEAQVLSGKNADFHRQDLWDAIESGNGPEWDVCVQIVDESQAQAFGFDLLDPTKIIPEEYAPLTKLGLLKLDRNPTNYFAETEQVMFQPGHIVRGIDFTEDPLLQGRLFSYLDTQLNRNGGPNFEQLPINMPRVPIHNNNRDGAGQMFIHRNKYPYTPNTLNSGYPRQANQNAGRGFFTAPGRTASGALVREVSPTFNDHWSQPRLFFNSLTPVEQQFLVNAMRFEISLVKSEEVKKNVLTQLNRVSHDVAVRVAAAIGLGAPDADDTYYHNNKTAGVSIVGSGPLPTIKTLRVGILATTSESSALDQAAQLRTRLEKDGLVVTVVAETLREGVDQTYSTADATGFDGVVVVDGAAALFASTASSPLFPTGRPLQIFVDAYRWGKPVGVCGGKSSEVLDAADVPEDGDGVYSEESVDMFVEEFEKGLATFRFTDRFALDS
notes: recombinant, pET-28-TEV-CATPO; contains heme b; Rz 0.4
As to B3, the Km in data set [1] was 44 ± 0.4 mM; in data set [2], 35 ± 0.5 mM; in data set [3], 34 ± 1.2 mM; in data set [4], 40 mM; in data set [5] it was 48 ± 0.7 mM; in data set [6], 31 ± 0.5 mM. Besides, in data set [6], the kcat was found to be 28400 ± 1100 s⁻¹. In addition, the kcat/Km in data set [6] came to 920000 ± 4500 M⁻¹ s⁻¹.

B4: T188A (Mycothermus thermophilus; T207A) (protein)
chain: TCPFADPAALYSRQDTTSGQSPLAAYEVDDSTGYLTSDVGGPIQDQTSLKAGIRGPTLLEDFMFRQKIQHFDHERVPERAVHARGAGAHGTFTSYADWSNITAASFLNATGKQTPVFVRFSTVAGSRGSADTARDVHGFATRFYTDEGNFDIVGNNIPVFFIQDAIQFPDLIHSVKPRPDNEIPQAAAAHDSAWDFFSQQPSTMHTLFWAMSGHGIPRSYRHMDGFGVHTFRFVKDDGSSKLIKWHFKSRQGKASLVWEEAQVLSGKNADFHRQDLWDAIESGNGPEWDVCVQIVDESQAQAFGFDLLDPTKIIPEEYAPLTKLGLLKLDRNPTNYFAETEQVMFQPGHIVRGIDFTEDPLLQGRLFSYLDTQLNRNGGPNFEQLPINMPRVPIHNNNRDGAGQMFIHRNKYPYTPNTLNSGYPRQANQNAGRGFFTAPGRTASGALVREVSPTFNDHWSQPRLFFNSLTPVEQQFLVNAMRFEISLVKSEEVKKNVLTQLNRVSHDVAVRVAAAIGLGAPDADDTYYHNNKTAGVSIVGSGPLPTIKTLRVGILATTSESSALDQAAQLRTRLEKDGLVVTVVAETLREGVDQTYSTADATGFDGVVVVDGAAALFASTASSPLFPTGRPLQIFVDAYRWGKPVGVCGGKSSEVLDAADVPEDGDGVYSEESVDMFVEEFEKGLATFRFTDRFALDS
notes: recombinant, pET-28-TEV-CATPO; contains heme d; Rz 0.7
As for B4, the Km in data set [1] came to 46 ± 0.4 mM; in data set [2] it was 37 ± 1.0 mM; in data set [3], 35 ± 1.0 mM; in data set [4] it was 33 ± 0.5 mM; in data set [5], 52 ± 0.8 mM. Moreover, the kcat in data set [4] stood at 6700 ± 335 s⁻¹. Further, the kcat/Km in data set [4] was found to be 200000 ± 12000 M⁻¹ s⁻¹.
